This sample holds only a part of the variants without activity.
Key:
biotinyl-Ile-oxazolone = assay: self-aminoacylation, catalytic enhancement (BIO) (fold over background); higher = more active; k-Seq, kA / k0A0; sequences stand for … in GGGAAUGGAUCCACAUCUACGAAUUC…UUCACUGCAGACUUGACGAAGCUG
Method in brief: (§1)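 Mutagenized RNA pools with a 21-nt variable region (0.43 μM) were reacted with each biotinyl-aminoacyl-oxazolone at 2–1250 μM for 90 minutes at room temperature, in 50 μL HEPES/NaCl/KCl/MgCl2/CaCl2 buffer containing 5% acetonitrile at pH 6.9–7.0. RNA captured on streptavidin was quantified by triplicate qPCR and by Illumina sequencing. The fraction reacted for each sequence was fit to a pseudo-first-order model with bootstrapping, and catalytic enhancement is the median kA divided by the uncatalyzed rate, taken as the low-activity peak of a bimodal Gaussian fit.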

biotinyl-Leu-oxazolone = assay: self-aminoacylation, catalytic enhancement (BLO) (fold over background); higher = more active; k-Seq, kA / k0A0; sequences stand for … in GGGAAUGGAUCCACAUCUACGAAUUC…UUCACUGCAGACUUGACGAAGCUG
Method in brief: as §1

biotinyl-Phe-oxazolone = assay: self-aminoacylation, catalytic enhancement (BFO) (fold over background); higher = more active; k-Seq, kA / k0A0; sequences stand for … in GGGAAUGGAUCCACAUCUACGAAUUC…UUCACUGCAGACUUGACGAAGCUG
Method in brief: as §1

biotinyl-Met-oxazolone = assay: self-aminoacylation, catalytic enhancement (BMO) (fold over background); higher = more active; k-Seq, kA / k0A0; sequences stand for … in GGGAAUGGAUCCACAUCUACGAAUUC…UUCACUGCAGACUUGACGAAGCUG
Method in brief: as §1

biotinyl-Val-oxazolone = assay: self-aminoacylation, catalytic enhancement (BVO) (fold over background); higher = more active; k-Seq, kA / k0A0; sequences stand for … in GGGAAUGGAUCCACAUCUACGAAUUC…UUCACUGCAGACUUGACGAAGCUG
Method in brief: as §1

biotinyl-Trp-oxazolone = assay: self-aminoacylation, catalytic enhancement (BWO) (fold over background); higher = more active; k-Seq, kA / k0A0; sequences stand for … in GGGAAUGGAUCCACAUCUACGAAUUC…UUCACUGCAGACUUGACGAAGCUG
Method in brief: as §1

| Sequence | self-aminoacylation (biotinyl-Ile-oxazolone) | self-aminoacylation (biotinyl-Leu-oxazolone) | self-aminoacylation (biotinyl-Phe-oxazolone) | self-aminoacylation (biotinyl-Met-oxazolone) | self-aminoacylation (biotinyl-Val-oxazolone) | self-aminoacylation (biotinyl-Trp-oxazolone) |
| --- | --- | --- | --- | --- | --- | --- |
| AUGUUUGCUAAGAGUCGCAAG [Fam3.1 aminoacylation ribozyme variant] | 1.35 | 1.39 | 2.16 | 1.35 | 1.28 | 1.68 |
| AUUCAUCUAGGUCAUCUGGUG [Fam2.2 aminoacylation ribozyme variant] | 2.1 | 4.25 | 18.8 | 3.4 | 2.16 | 2.86 |
| AAAUUUGCCAAUAGUCGCAAG [Fam3.1 aminoacylation ribozyme variant] | 1.77 | 1.76 | 2.17 | 1.69 | 1.65 | 2.14 |
| CUACUUCAAUCAAACGGUCUG [Fam1A.1 aminoacylation ribozyme variant] | 0.637 | 0.671 | 0.638 | 0.639 | 0.794 | 0.481 |
| CCACACUGCAAGCAAUCGCUC [Fam1B.1 aminoacylation ribozyme variant] | 2.73 | 2.4 | 16 | 2.1 | 2.35 | 1.78 |
| AAAUUUGCUAAUAGUCGCCAG [Fam3.1 aminoacylation ribozyme variant] | 2.08 | 1.67 | 4.62 | 1.75 | 2.15 | 2.92 |
| CUACUUCAAUCAAUCGGUCUG [Fam1A.1 aminoacylation ribozyme variant] | 1.01 | 1.44 | 31.7 | 1.04 | 1.03 | 17.9 |
| AUGUUUGCUAAUAGUCGCAAC [Fam3.1 aminoacylation ribozyme variant] | 1.15 | 1.04 | 1.82 | 1.05 | 1.05 | 1.08 |
| AUUCACCUAGGGCAUCGGGUU [Fam2.2 aminoacylation ribozyme variant] | 1.91 | 2.37 | 5.04 | 2.08 | 2.01 | 2.78 |
| CCACACUUCCUGCAAUCGGUC [Fam1B.1 aminoacylation ribozyme variant] | 1.04 | 1.11 | 0.777 | 0.859 | 1.19 | 0.961 |
| CCACACUUCAAGGACUCGGUC [Fam1B.1 aminoacylation ribozyme variant] | 1.02 | 1.23 | 1.05 | 1.03 | 1.24 | 1.13 |
| AUUCACCCAGGUCAGCGGGUG [Fam2.2 aminoacylation ribozyme variant] | 2.93 | 5.61 | 18.4 | 3.76 | 2.73 | 4.34 |
| AUUCACCUCGGUCAUCGCGUG [Fam2.2 aminoacylation ribozyme variant] | 6.77 | 16 | 109 | 11.4 | 7.67 | 12.9 |
| AUUAGCCUGGUAAUCGAGUGA [Fam2.1 aminoacylation ribozyme variant] | 5.28 | 13.3 | 75.9 | 11.6 | 5.07 | 12.8 |
| AGUCACCUCGGUCAUCGGGUG [Fam2.2 aminoacylation ribozyme variant] | 4.47 | 6.23 | 44.4 | 6.27 | 4.18 | 7.18 |
| AAGUUUGCAAAUAGUAGCAAG [Fam3.1 aminoacylation ribozyme variant] | 1.27 | 1.07 | 1.62 | 1.03 | 0.939 | 0.923 |
| ACUCACAUAGGUCAUCGGGUG [Fam2.2 aminoacylation ribozyme variant] | 6.79 | 10.6 | 69.5 | 9.37 | 6.65 | 10.2 |
| AUUACCGUGGCCAUCGAGUGA [Fam2.1 aminoacylation ribozyme variant] | 3.2 | 5.84 | 32.8 | 4.71 | 3.89 | 8.11 |
| CUACUUAAAACAAUAGGUCUG [Fam1A.1 aminoacylation ribozyme variant] | 0.928 | 0.893 | 0.984 | 1.15 | 0.934 | 0.747 |
| AGUGACCUAGGUCAUCGGGUG [Fam2.2 aminoacylation ribozyme variant] | 3.48 | 4.73 | 25.7 | 3.53 | 3.69 | 4.64 |
| CUACUUCCAACAGUCGGUCUG [Fam1A.1 aminoacylation ribozyme variant] | 0.911 | 0.971 | 0.496 | 1.06 | 0.851 | 0.76 |
| AUUCACAUAGGGCAUCGGGUG [Fam2.2 aminoacylation ribozyme variant] | 3.83 | 3.62 | 20.9 | 4.4 | 3.39 | 4.52 |
| CUACUUCUAACAAUGGGUCUG [Fam1A.1 aminoacylation ribozyme variant] | 0.833 | 0.697 | 0.582 | 0.718 | 0.705 | 0.566 |
| AUUACGCUGGUCAUCGAGAGA [Fam2.1 aminoacylation ribozyme variant] | 1.21 | 1.42 | 1.36 | 1.44 | 1.73 | 1.59 |
| AUUACCCUGGUCAUCGCGCGA [Fam2.1 aminoacylation ribozyme variant] | 5.07 | 6.23 | 36.7 | 4.45 | 5.24 | 3.18 |
| AUCACCCUGGUGAUCGAGUGA [Fam2.1 aminoacylation ribozyme variant] | 3.57 | 8.91 | 54.1 | 7.25 | 3.87 | 8.41 |
